According to paper PMC9508527, “Two-component carnitine monooxygenase from Escherichia coli: functional characterization, inhibition and mutagenesis of the molecular interface” (Bioscience Reports, 2022):
Positions count from the first letter of the chain named.

Experiments:
Assay in all cases: cell-based or functional assay
[1] = biological target: T1, YeaW variant D135S (E. coli, UniProt P0ABR7 1-374, D135S)
T1 sequence (looked up): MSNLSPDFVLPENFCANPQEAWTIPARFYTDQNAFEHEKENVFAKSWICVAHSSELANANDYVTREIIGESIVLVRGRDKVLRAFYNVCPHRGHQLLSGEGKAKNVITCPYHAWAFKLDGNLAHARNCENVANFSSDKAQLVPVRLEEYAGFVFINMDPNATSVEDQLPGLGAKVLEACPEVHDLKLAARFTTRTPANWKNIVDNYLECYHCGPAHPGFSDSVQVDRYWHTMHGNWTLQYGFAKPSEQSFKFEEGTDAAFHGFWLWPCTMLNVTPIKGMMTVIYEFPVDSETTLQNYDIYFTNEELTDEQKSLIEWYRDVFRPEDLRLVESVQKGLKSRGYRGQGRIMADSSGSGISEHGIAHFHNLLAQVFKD

[2] = biological target: T2, YeaW variant D135K (E. coli, UniProt P0ABR7 1-374, D135K)
T2 sequence (looked up): T1 sequence (looked up) with S135K

[3] = biological target: T3, YeaW variant E330S (E. coli, UniProt P0ABR7 1-374, E330S)
T3 sequence (looked up): T1 sequence (looked up) with S135D, E330S

[4] = biological target: T4, YeaW variant R83K (E. coli, UniProt P0ABR7 1-374, R83K)
T4 sequence (looked up): T1 sequence (looked up) with R83K, S135D

[5] = biological target: T5, YeaW variant R83Q (E. coli, UniProt P0ABR7 1-374, R83Q)
T5 sequence (looked up): T1 sequence (looked up) with R83Q, S135D

[6] = biological target: T6, YeaW variant K117S (E. coli, UniProt P0ABR7 1-374, K117S)
T6 sequence (looked up): T1 sequence (looked up) with K117S, S135D

[7] = biological target: T7, YeaW variant K117E (E. coli, UniProt P0ABR7 1-374, K117E)
T7 sequence (looked up): T1 sequence (looked up) with K117E, S135D

B1: YeaX, reductase component of carnitine monooxygenase from E. coli (enzyme, UniProt P76254 1-321, looked up)
chain: MSDYQMFEVQVSQVEPLTEQVKRFTLVATDGKPLPAFTGGSHVIVQMSDGDNQYSNAYSLLSSPHDTSCYQIAVRLEENSRGGSRFLHQQVKVGDRLTISTPNNLFALIPSARKHLFIAGGIGITPFLSHMAELQHSDVDWQLHYCSRNPESCAFRDELVQHPQAEKVHLHHSSTGTRLELARLLADIEPGTHVYTCGPEALIEAVRSEAARLDIAADTLHFEQFAIEDKTGDAFTLVLARSGKEFVVPEEMTILQVIENNKAAKVECLCREGVCGTCETAILEGEADHRDQYFSDEERASQQSMLICCSRAKGKRLVLDL
L-carnitine depletion activity (wild type = 100%) [1]: 106% | O2 depletion activity (wild type = 100%) [1]: 106% | L-carnitine depletion activity (wild type = 100%) [2]: 94% | O2 depletion activity (wild type = 100%) [2]: 97% | L-carnitine depletion activity (wild type = 100%) [3]: 92% | O2 depletion activity (wild type = 100%) [3]: 85% | L-carnitine depletion activity (wild type = 100%) [4]: 76% | O2 depletion activity (wild type = 100%) [4]: 79% | L-carnitine depletion activity (wild type = 100%) [5]: 51% | O2 depletion activity (wild type = 100%) [5]: 59% | L-carnitine depletion activity (wild type = 100%) [6]: 122% | O2 depletion activity (wild type = 100%) [6]: 109% | L-carnitine depletion activity (wild type = 100%) [7]: 63% | O2 depletion activity (wild type = 100%) [7]: 75%
